Reference: paper PMC2935088

Target: T1, DesT (selenomethionine) (Pseudomonas aeruginosa, UniProt Q9HUS3 1-209)
T1 sequence: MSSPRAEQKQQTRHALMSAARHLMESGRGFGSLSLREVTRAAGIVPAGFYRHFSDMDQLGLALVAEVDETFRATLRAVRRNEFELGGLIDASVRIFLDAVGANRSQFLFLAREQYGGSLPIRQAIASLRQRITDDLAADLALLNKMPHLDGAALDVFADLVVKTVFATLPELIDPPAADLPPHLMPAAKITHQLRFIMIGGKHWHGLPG
Experiment: X-ray crystallography

B1: desCB promoter 30mer crystallization duplex (dsDNA)
DNA 1: TTACATCAGTGAACGCTTGTTGACTCGATTG
DNA 2: CAATCGAGTCAACAAGCGTTCACTGATGTA
**Q.** Does B1 bind?
**A.** binds
